“And” between values parts separate entries of the source, which are not always exact repeats. Equal entries are not always repeated.

For data set [1], the target named is T1, Cys32 (UniProt position 33, FWAEWCGPCKM). The experiment in a line: fluorescence. Conditions: not stated (no added NaCl mentioned); 15 mM acetic acid, 15 mM MES, 30 mM Tris, 100 μM dtpa, 2 mM DTT; reduced (dithiol) thioredoxin in the presence of 2 mM DTT; folded.
A further data set has as its target Cys35 (UniProt position 36, EWCGPCKMIAP). The experiment in a line: chemical modification. The conditions noted are these: 120 mM NaCl plus buffer components, 30 mM ACES, 15.6 mM ethanolamine, 15.6 mM TRIS, 0.1 mM DTPA, reduced (dithiol) thioredoxin, DTT removed by gel filtration, folded. For orientation: SEC sorts molecules by how far they enter the pores of the column.

Data set [2] addresses T1, Cys32. In words: chemical modification. Conditions: 120 mM NaCl plus buffer components, 30 mM ACES, 15.6 mM ethanolamine, 15.6 mM TRIS, 0.1 mM DTPA, reduced (dithiol) thioredoxin, DTT removed by gel filtration, folded.

On to “Thioredoxin 1 (EcTRX), wild type (Escherichia coli)”, for which the pKa with Cys32 [1] is 7.5 ± 0.2 and 7.23 ± 0.06; with Cys35, 9.3 ± 0.3; with Cys32 [2], 7.3 ± 0.3.
With “Thioredoxin 1 (EcTRX) E101G (Escherichia coli; E101G)”, the pKa with Cys32 [1] was 7.1 ± 0.1 and 7.10 ± 0.04; in the data set with Cys35, 9.0 ± 0.2; with Cys32 [2], 6.80 ± 0.20.
In the case of “Thioredoxin 1 (EcTRX) N106A (Escherichia coli; N106A)”, the pKa with Cys35 is recorded as 8.9 ± 0.1; in the data set with Cys32 [2], 6.5 ± 0.1.
Turning to “Thioredoxin 1 (EcTRX) L107A (Escherichia coli; L107A)”, in the data set with Cys32 [2], the pKa worked out at 7.3 ± 0.1.
Consider “Thioredoxin 1 (EcTRX) L94A (Escherichia coli; L94A)”, for which the pKa with Cys35 is 8.8 ± 0.1; in the data set with Cys32 [2], 6.9 ± 0.1.

In general, pKa refers to the pH at which an ionisable group is half protonated.

The values above are taken from PMC5299410.
